The values that follow come from publication PMC12017984.

For experiment [1], the target named is Recombinant His-tagged human apolipoprotein A-IV, apoA-IV^T347S (human) (UniProt P06727). As to the kind of experiment: BLI. In general terms: BLI is a label-free optical method that tracks binding on a fibre tip over time.
The target in experiment [2] is Recombinant human apolipoprotein A-IV, apoA-IV^T347S, His tag-free (human) (UniProt P06727). The experiment is described as follows: ITC. (In general: Isothermal titration calorimetry measures the heat released or taken up as one component is titrated into another.)
The target of experiment [3] is Recombinant human apolipoprotein A-IV, apoA-IV^WT, His tag-free (human) (UniProt P06727). The experiment is described as follows: ITC.

A word on the Kd: it is the equilibrium constant for the complex coming apart. On to “Human platelet integrin αIIbβ3 (from UniProt P05106 27-788) (receptor)”, for which the Kd in experiment [1] came to 0.397 µM.
Take “Recombinant human apolipoprotein A-IV, apoA-IV^T347S, His tag-free (from UniProt P06727 21-396) (natural protein)”: in experiment [2], the Kd amounted to 102 µM and the dH is -142 kJ/mol.
Turning to “Recombinant human apolipoprotein A-IV, apoA-IV^WT, His tag-free (from UniProt P06727 21-396) (natural protein)”, in experiment [3], the Kd1 is 0.63 µM, the Kd2 came to 54 nM, the dH1 came to 11.3 kJ/mol and the dH2 is -113 kJ/mol.
